The nanobody polyreactivity screen of Harvey et al. (2022)

Assay: yeast display, Sf9 membrane polyspecificity reagent, FACS + sequencing; frameworks hold sequencing errors
Outline: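 Nanobodies from a synthetic yeast display library (Saccharomyces cerevisiae BJ5465), induced 36–48 hours with galactose, were stained 1 hour at 4 °C with 10% biotinylated, detergent-solubilized Sf9 membrane reagent, enriched on streptavidin microbeads, then FACS-sorted. Anti-HA (expression) and streptavidin (reagent binding) fluorescence set low and high (top ~1%) gates. Polyreactivity labels come from the gate of origin. Genes were colony-PCR amplified, MiSeq 2 × 250 sequenced and filtered by CDR length.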

Sequence | polyreactivity (PSR sort gate)
QVQLVESGGGLVQAGGSLRLSCAASGIIFYGNAMGWYRQAPGKERELVARITGSDGRTYYADSVKGRFTISRDNAKNTVYLQMNSLKPEDTAVYYCNADRVRTAVYSYVYAYGIMNYWGQGTQVTVSS | low polyreactivity
QVQLVESGGGLVQAGGSLRLSCAASGFIFYRYAMGWYRQAPGKERELVAAISGSGGRTYYADSVKGRFTISRDNAKNTVYLQMNSLKPEDTAVYYCAADKQAYVTDDYWGKGTQVTVSS | high polyreactivity
QVQLVESGGGLVQAGGSLRLSSAASGSIFLKNAMGRSRQAPGKERELVARISFSGGSTYYADSVKGRFTISRDNAQNTVYLQMNSLKPEDTAVYYCAKTVLRTESGWWIKFDYWGQGTQVTVSS | low polyreactivity
QVQLVESGGGLVQAGGSLRLSCAASGRTFVYYAMGWYRPAPGKERELVAAISRSGSTYYADSVKGRFTISRDNAKNTVYLQMNSLKPEDTAVYYCARPGGPDRTSSPYPYPYGYWGQGTQVTVSS | low polyreactivity
QVQLVESGGGLVQAGGSLRLSCAASGSIFRFNAMGWYRQAPGKEREFVAAISSGGRTYYADSVKGRFTISRDNAKNTVYGQRNSLKPDDPAVYYCAALWHRRGSWFRQTGSGYDYWGQGTQVTVSS | high polyreactivity
QVQLEESGGGLVQAGGSLRLSCAASGSIFQSYDMGWYRQAPGKERELVAAISWSGSTTYYADSVKGRFTISRDNAKNTVYLQMNSLKPEDTAVYYSAVDSNPPDWWAVIYGYWGQGTQVTVSS | low polyreactivity
QVQLVESGGGLVQAGGSLRLTCAASGRTFRGYVKAWSRQAPGKERELVAAISWSGGSTYYADSVKGRFTISRDNAKNSVYLQMKSLKPEDTAVYYCAARRYSYVGGQGSDYWGQGTLVTVSS | high polyreactivity
QVQLVESGGGLVQAGGSLRLSCAASGRTFYRYAMGWYRQAPGKERELVAAITWSGGSTYYADSVKGRFTTSRDNAKNTVYLQMNSLKPEDTAVYYCAADAALITYYGWADMYYWGQGTQVTVSS | low polyreactivity
QVQLVESAGGLVQAGGSLRLSCDASGRTFRYYVMGWYRQAPGNERELVAAISWSGCRTNYADSVKGRYTISGDNAKNTVYLQMNSLKPEDSAVYYCNAPRPALRRYDYWGQGTQVTVSS | high polyreactivity
QVQLVESGGGLVQAGGSLRLSCAASGITFDINAMGWYRQAPGKERELVAAISKSGRTYYADSVKGRFTISRDNAKNTVYLQMNSLKPEDTAVYYCNKVPYPSNDYWGQGTQVTVSS | high polyreactivity
QVQLVESGGGLVQAGGSLRLSCDASGRIFYGYAMGWYRQAPGKERELVAAITYIGGTYYADSVKGRFTISRDNAKNTVYLQMNSMKPEDTAVYYCNALYRYLYRSGDFWGQGSQVTVSS | low polyreactivity
QVQLVESGGGLVQAGGSLRLSCAASGRIFTYYAMGWYRQVPGKERELVAGISGSGTSTYYADSVKGRFTISRDNAKNTVYLQMNSLKPEDTAVYYCAAIRRQKGLWDYYYWGQGTQVTVSS | low polyreactivity
QDQHGESGGGLVQAGGSLRLSCAASGYTFLRNDMGWYRQPHGKVRELVAAISYSGGGTYYADSVKGRFTISRDNAKITVYLQMNSLKPEDTAVYYCNVAQRYYGNFFSSRYEYWGQGTQVTVSS | low polyreactivity
QVQLVESGGGLVQAGGSLRLSCAASGSTFSGNAMGWYRQAPGKERELVAAITSGGSTNYADSVKGRFTISRDNAKNTVYLDMNSLKPEDTAVYYCAKRYGYRRYYTASDYWGQGTQVTVSS | low polyreactivity
QVQLVESGGGLVQAGGSLRLSCAASGSIFYGYAMGWYRPAPGKERELVAAINWSGGGTYYADSVKGRFTISRDNAKNTVYLQMNSLKPEDTAVYYCAAGHVVRRPYLIYDYWGQGTQVTVSS | high polyreactivity
QVQLVESGGGLVQAGGSLRLSCAASGLIFPTNAMGWYRPAPGKERELVAAISSVGSTYYADSVKGRFTISRDNAKNTVYLQMNSLKPEDTAVYYCAAYWYGSQYKWRYDYWGQGTQVTVSS | low polyreactivity
QVQLVESGGGLVQAGGSLRLTCAASGRTFRVYAMGWYRQAPGKERELVATITSSGGSTYYADSVKGRFTISRDNAKKTVYLQMNSLKREDTAVYYCNVSVYYNYDSSYDYWGQGTQVTVSS | low polyreactivity
QVQLVESGGGLVQAGGSLRLSCAASGSTFFYYTMGWYRQAPGKERELVAAISRGGRTNYADSVKGRFTISRDNAKNTVYLLMNSLKREDTAVFYCIADAWSFRQYWGRYDYWGQGTQVTVSS | high polyreactivity
QVQLVESGGGLVQAGGSLRLSCAASGSTFPPNAMGWYRQARGKARELVAVISYSDGSTYYADSVNGRFTISRDNAKNTVYLQMNSLKPEDTAVYYCAAYSGYAGVSMYYWGQGTQVTVSS | low polyreactivity
QVQLVESGGGLVQAGGSLRLSFAATGRICSPYAMGWYRQAPGKERELVAAISYDDGITYYADSVKGRFTISRDNATNTVYLQMNSLTPEDTAVYYCAADSVTRPAGDYWGQGTQVTVSS | low polyreactivity
QVQLVESGAGLVQAGGSLRLSCAASGYIFYKNAMGWYRQAPGKERELVAAISTRGGSTYYADSVKGRFTISRDNAQNTVYLHMNSLKPEDTAVNYCAASQNRRDWGQGTQVTVSS | high polyreactivity
QVQLVESGGGLVQAGGSLRLSCAASGFTFPYNAMGWYRQAPGKERELVAAISSTGGITYYADSVKGRFTISRDNEKNTVYLQMNSLKPEDTAVYYCNAGYPDYDWTWWHISYDYWGQGTQVTVSS | low polyreactivity

Sequence | polyreactivity (PSR sort gate)
QVQLVESGGGLVQAGGSLRLSCAASGSIFAPYAMGWYRQAPGKERELVAAINNNGGRTYYADSVKGRFTISRDNAKNTVYLQMNSLKPEDTAVYYCAKELGYDWYYRPYGYWGQGTQVTVSS | low polyreactivity
QVQLVESGGGLVQAGGSLRLSSAASGRIFPYYAMGWYRQAPGKERELVAAITSSGGSTYYADSVKGRFTISRDTAKNTVYFQMNSLKPEDSAVYYCAGTSPYDDYPYTRGIYAYGYWGQCTQVTVSS | low polyreactivity
HVQLVESGGGLVQAGGSLRLRCAASGFTIRSYVMGWYRQAPGKERELVAAIRRSGGSTYYADSVKGRFTISRDNAKNTVYLQMNSLKPEDTAVYYCNTVSGYGQPRGDYWGQGTQVTVSS | high polyreactivity
QVQLVESGGGLVQAGGSLRLSCAASGFTFIYNAMGWYRQAPGKERELVAAISYRTSRTYYADSVKGRFTISRDNAKNTVYLQMNSLKPEDTAVYYCAKGYGRHGLDYWGQGTQVTVSS | high polyreactivity
QVQLVESGGGLVQAGGSLRLSCAASGFTFAVYTMGRYIQGPGKERELVAAITASGGSTHYADSVKGRFTISRDNAKNTVYIQMNSLKPEDTAVYYCAARPRLYQYYYWGQGTQVTVSS | high polyreactivity
QVQLVESGGGLVQAGGSLRLSCAASGITFPSYAMGWYRQAPGKERELVATISRGDSTYYADSVKGRFTISRDNAKNTVYLQMNSLKPEDTAVYYCATRAYRLDPLQHDYWGQGTQVTVSS | low polyreactivity
QVQLVESGGGLVQAGGSLRLSCAASGRILRTYAMGWYRQAPGKERELVAAITRGGSTYYADSVKGRFTISRDNAKNTVYLQMNSLKPEDTAVYYCNKYKSPYITLSQYGYWGQGTQVTVSS | high polyreactivity
QVQLVESGGGLVQAGGSLRLSCAASGITIVYYAMGWYRQAPGKERELVAAITRGGNTYYADSVKGRFTISRDNAKNTVYLQMNSLKPEDTAVYYCAAVGYYYSALDMDYWGQGTQVTVSS | low polyreactivity
QVQLVESGGGLVQAGGSLRISCAASGSNSNANAMGWYRQAPGKQREFVADISRSRGRTYYADSVKGRFTISRDNAKYTVYLQMNSLKPEVTAVYYCAAGGFGAGNNYWGQGTQVTVSS | high polyreactivity
QVQLVDSGGGLVQAGGSLSLSCAASGRTFNYKAMGWYRQAPGKERELVAAISWGGGSTFYADSVKGRFTISRDNAKNTVYLEMNSLKPEDTAVYYCAAYRQYGNRGAYYSWGQGTQVTVSS | low polyreactivity
QVQLVESGGGLVQAGGILRLSCAASGGIFSVYAMGWYRQAPGKERELVASITVSGGSTSYADSVKGRFTISRDNAKNTVYLQMNCLKPEDTAVYYCAADLLRYFGYYDYDSWGQGTQVTVSS | low polyreactivity
QVQLVESGRGLVQAGGSLRLSCAASGSTFGGYAMGWNRPAPGKERELVAAISIEGGSTYYAESVKGRFTISRDNAKNTVYLQMNSLKPEDTAVYYCNADEYYYGYNYWGQATQVTVSS | low polyreactivity
QVQLVESGGGLVQAGGSLRLSSAASGRTFYRNAIGWYRQAPGKERELVAAISSGSTTYYADSVKGRFTISRDNAKNTVYLQMNSLKPEDTAVYYCATTLRQYKPPSGRDYWGQGTQVTVSS | low polyreactivity
QVQLVESGGGLVQAGGSLRLSCAASGINFVLYAMGWYRQAPGKERELVAAITSGGRTYYADSVNGRFTISRDNAKNTVYLQMISLKPEDTAVYYCADNYFTQRLWFDYWGQGTQVSVSS | high polyreactivity
QVQLVDSGGGLVQAGGSLRLSCAASGRTFRSYAMGWYRQAPGKERELVAAITWNGGGTYYADSVKGRFTMSRDNAKNTVYLQMNSLKPEETAVYYCAGRGRTDSYWRFYHWGQGTQVTVSS | high polyreactivity
QVQLVESGGCLVQAGGSHRLSCAASGFIFYRYAMGWYRQAPGKERELVAAISGSGGRTYYADSVKGRFTISRDNAKNTVYLQMNSLKPEDTAVYYCAADKQAYVTDDYWGQGTQVTVSS | high polyreactivity
QVQLVESGGGLVQAGGSLRLSCAASGSIFRYNAMGWYRQAPGKERELVAAISLNTGSTYYADSVKGRFTISRDNAKNTVYLQMNSLKPEDTAVYYCNADDYTYATYEYDYWGQGTQVTVSS | low polyreactivity
QVQLVESGGGLVQAGGSLRLSCAASGSIFKDNAMGWYRQAPGKERELVAAITSGASTNYADSVKGRFTISRDNAKNTVYLQMNSLKPEVTAVYYCAAVLAGGVYWVVHYDYWGQGTQVTVSS | low polyreactivity
QVHLQESGGGLVKAGGSLRLSCAASGNISNHNDMGWYRQAPGKEREFVAGITAGGITNYADSVKGRFTISRDNAKNTVYLQMNSLKPEDTAVYYCAASPDYAKSYGYWGQGTQATVSS | low polyreactivity
QVQLVESGGGLVQAGGSLRLSCAASGFTFRTNVMGWYRQAPGKERELVAVITRDGGSTYYADSVKGRFTISRDNAKNTVYLQMNSLKPEDTAVYYCNAAAFINFILYDYWGQGTQVTVSS | high polyreactivity
QVQLVESGGGLVQAGGSLRLSCAASGFIFEPNAMGWYRQAPGKERELVAAISWSGGSTYYADSVKGRFTISRDNAKNTVYLQMNSLKPEDTAVYYCNADITYAYYEYGSWGQGTQVTVSS | high polyreactivity
